This data set deals with Ec Hfq WT (Escherichia coli, UniProt P0A6X3 1-102). As to the kind of experiment: fluorescence polarization.

The results in this text go back to PMC4174437.

The Kd is the constant that tells how readily two partners part at equilibrium.

Sequence of Ec Hfq WT (P0A6X3 whole entry): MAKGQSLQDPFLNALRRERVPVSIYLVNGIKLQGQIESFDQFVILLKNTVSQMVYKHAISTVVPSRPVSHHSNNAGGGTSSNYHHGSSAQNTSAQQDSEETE

B1: U6 (5'-fluorescein) (ssRNA)
RNA: UUUUUU
B1 showed a Kd of 3.3 nM.
